Target: T1, IscR-His (Caulobacter crescentus NA1000) (UniProt A0A0H3C7T4)
T1 sequence: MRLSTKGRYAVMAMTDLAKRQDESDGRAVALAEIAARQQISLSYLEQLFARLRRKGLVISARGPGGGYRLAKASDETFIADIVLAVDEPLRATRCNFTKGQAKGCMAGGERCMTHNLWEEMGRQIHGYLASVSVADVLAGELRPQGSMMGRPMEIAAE
Assay: EMSA
Conditions: 10 mM HEPES, 40 mM KCl, 1 mM MgCl2, 1 mM MnCl2, 5% glycerol, 0.1 mg/ml salmon sperm DNA, 500 ng probe, pH not stated, 30 min room temperature

AAACCACTCCCGGAATCACGCGCAGATCGGAAGGGACACACAGGTTCCGCCTCCGCGCCGCGTACCACCCTGAACGACTGGAGGGGGGCGACCGGCCGCTTCTTAGCGCCGCCGTCGACCAACGTCCATGTCACGTGCGGGGTCTTGGCGTGTTGAGAGCTGTTCTCATTAAGGATCTGGCGATTTCGCGCGGTGAGCGAACGCTGTTTTC (double strand) [acn regulatory region]
binding: binds

Reference: PMC11475020
